Reference: FireProtDB (doi:10.1006/jmbi.1995.0599)

B1: Lysozyme C, P61626 (parent)
chain: MKALIVLGLVLLSVTVQGKVFERCELARTLKRLGMDGYRGISLANWMCLAKWESGYNTRATNYNAGDRSTDYGIFQINSRYWCNDGKTPGAVNACHLSCSALLQDNIADAVACAKRVVRDPQGIRAWVAWRNRCQNRDVRQYVQGCGV

Variants of: B1
Details: Homo sapiens, pH 2.7, Thermal, DSC, glycine 0.05 M, reversible: yes, structure 1LZ1, whole UniProt chain shown

Row | Variant | ddG of mutation (higher = less stable) (64.9 °C) | heat capacity change of unfolding (64.9 °C) | Tm | change of melting temperature, mutant - wild type (higher = more stable) | heat capacity change of unfolding | unfolding enthalpy (calorimetric) | unfolding enthalpy (van 't Hoff)
1 | MKALIVLGLVLLSVTVQGKVFERCELARTLKRLGMDGYRGVSLANWMCLAKWESGYNTRATNYNAGDRSTDYGIFQINSRYWCNDGKTPGAVNACHLSCSALLQDNIADAVACAKRVVRDPQGIRAWVAWRNRCQNRDVRQYVQGCGV [I41V] | 0.36 kcal/mol | 1.39 kcal/mol/K | 63.8 °C | -1.1 °C | 1.39 kcal/mol/K | 112 kcal/mol | 120 kcal/mol
2 | MKALIVLGLVLLSVTVQGKVFERCELARTLKRLGMDGYRGISLANWMCLAKWESGYNTRATNYNAGDRSTDYGIFQINSRYWCNDGKTPGAVNACHLSCSALLQDNVADAVACAKRVVRDPQGIRAWVAWRNRCQNRDVRQYVQGCGV [I107V] | 0.48 kcal/mol | 1.91 kcal/mol/K | 63.5 °C | -1.4 °C | 1.91 kcal/mol/K | 116 kcal/mol | 122 kcal/mol
3 | MKALIVLGLVLLSVTVQGKVFERCELARTLKRLGMDGYRGISLANWMCLAKWESGYNTRATNYNAGDRSTDYGIFQINSRYWCNDGKTPGAVNACHLSCSALLQDNIADAVACAKRVVRDPQGVRAWVAWRNRCQNRDVRQYVQGCGV [I124V] | 0.72 kcal/mol | 1.41 kcal/mol/K | 62.7 °C | -2.2 °C | 1.41 kcal/mol/K | 109 kcal/mol | 114 kcal/mol
4 | MKALIVLGLVLLSVTVQGKVFERCELARTLKRLGMDGYRGISLANWMCLAKWESGYNTRATNYNAGDRSTDYGIFQVNSRYWCNDGKTPGAVNACHLSCSALLQDNIADAVACAKRVVRDPQGIRAWVAWRNRCQNRDVRQYVQGCGV [I77V] |  |  | 61.5 °C | -3.4 °C | 1.2 kcal/mol/K | 110 kcal/mol | 117 kcal/mol
5 | MKALIVLGLVLLSVTVQGKVFERCELARTLKRLGMDGYRGISLANWMCLAKWESGYNTRATNYNAGDRSTDYGVFQINSRYWCNDGKTPGAVNACHLSCSALLQDNIADAVACAKRVVRDPQGIRAWVAWRNRCQNRDVRQYVQGCGV [I74V] | 1.2 kcal/mol | 1.34 kcal/mol/K | 61.3 °C | -3.6 °C | 1.34 kcal/mol/K | 114 kcal/mol | 117 kcal/mol
